In PMC7319778:

Target: human toll-like receptor 4 (TLR4) on HEK293 cells expressing human TLR4-MD2-CD14 (human) (UniProt O00206)
Experiment: flow cytometry on cells

Sequence of UniProt O00206 (O00206 24-839): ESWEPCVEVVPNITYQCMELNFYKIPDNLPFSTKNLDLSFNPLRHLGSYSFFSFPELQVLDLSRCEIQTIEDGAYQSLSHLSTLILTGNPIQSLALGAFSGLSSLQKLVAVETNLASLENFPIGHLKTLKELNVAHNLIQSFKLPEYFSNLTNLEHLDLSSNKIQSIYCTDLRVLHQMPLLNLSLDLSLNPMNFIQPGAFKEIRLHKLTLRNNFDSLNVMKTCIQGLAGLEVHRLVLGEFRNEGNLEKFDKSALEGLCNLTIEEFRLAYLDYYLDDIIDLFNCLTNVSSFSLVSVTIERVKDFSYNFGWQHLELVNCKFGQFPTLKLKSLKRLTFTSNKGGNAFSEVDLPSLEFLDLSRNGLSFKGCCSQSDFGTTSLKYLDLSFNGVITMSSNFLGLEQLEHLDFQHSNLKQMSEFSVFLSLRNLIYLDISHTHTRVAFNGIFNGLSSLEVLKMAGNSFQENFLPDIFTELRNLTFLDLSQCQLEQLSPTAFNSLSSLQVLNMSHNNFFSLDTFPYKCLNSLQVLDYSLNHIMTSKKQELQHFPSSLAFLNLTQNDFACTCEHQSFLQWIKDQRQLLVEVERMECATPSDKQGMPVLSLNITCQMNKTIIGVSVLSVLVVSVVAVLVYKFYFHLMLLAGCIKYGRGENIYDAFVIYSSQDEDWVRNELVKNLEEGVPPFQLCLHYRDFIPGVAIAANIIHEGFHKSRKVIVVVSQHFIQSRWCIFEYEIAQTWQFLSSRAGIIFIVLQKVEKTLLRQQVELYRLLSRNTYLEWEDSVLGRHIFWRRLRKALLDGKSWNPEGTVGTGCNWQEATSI

Row | Substance | level of fluorescence (percent, flow cytometry) | TLR4-binding capacity (percent, flow cytometry)
1 | hEDA-HPVE7-16 fusion protein (human extra domain A from fibronectin fused to E7 protein from HPV16) | 19.5% | –
2 | hEDA-HPVE7-16/18 fusion protein (human extra domain A from fibronectin fused to E7 proteins from HPV16 and HPV18) | – | 36.9%
3 | mEDA-HPVE7-16 fusion protein (extra domain A from murine fibronectin fused to E7 protein from HPV16) | – | 40.2%
